From patent US20190032033A1

These substances were tested against near wild type β1AR construct (β6) (UniProt P07700) (assay: cell-based or functional assay).
near wild type β1AR construct (β6), sequence (P07700 33-424): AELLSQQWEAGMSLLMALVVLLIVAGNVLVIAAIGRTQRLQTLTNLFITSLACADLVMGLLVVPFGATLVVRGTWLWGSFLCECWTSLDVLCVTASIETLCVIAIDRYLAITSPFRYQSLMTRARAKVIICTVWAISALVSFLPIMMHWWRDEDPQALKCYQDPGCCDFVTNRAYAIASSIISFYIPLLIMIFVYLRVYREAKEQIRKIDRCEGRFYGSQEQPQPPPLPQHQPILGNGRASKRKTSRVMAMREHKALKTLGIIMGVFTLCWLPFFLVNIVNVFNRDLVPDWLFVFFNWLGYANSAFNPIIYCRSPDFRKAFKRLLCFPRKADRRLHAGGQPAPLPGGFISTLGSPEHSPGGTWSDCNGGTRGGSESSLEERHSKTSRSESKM
For Nb80 (VHH), the fold increase of isoprenaline affinity of the near wild-type β1AR was 3.5 fold and the isoprenaline IC50 of β6 (alone […] nM) was 51 nM.

These substances were tested against wild type A2AR in HEK293 cell membranes (UniProt P29274) (assay: cell-based or functional assay).
wild type A2AR in HEK293 cell membranes, sequence (P29274 whole entry): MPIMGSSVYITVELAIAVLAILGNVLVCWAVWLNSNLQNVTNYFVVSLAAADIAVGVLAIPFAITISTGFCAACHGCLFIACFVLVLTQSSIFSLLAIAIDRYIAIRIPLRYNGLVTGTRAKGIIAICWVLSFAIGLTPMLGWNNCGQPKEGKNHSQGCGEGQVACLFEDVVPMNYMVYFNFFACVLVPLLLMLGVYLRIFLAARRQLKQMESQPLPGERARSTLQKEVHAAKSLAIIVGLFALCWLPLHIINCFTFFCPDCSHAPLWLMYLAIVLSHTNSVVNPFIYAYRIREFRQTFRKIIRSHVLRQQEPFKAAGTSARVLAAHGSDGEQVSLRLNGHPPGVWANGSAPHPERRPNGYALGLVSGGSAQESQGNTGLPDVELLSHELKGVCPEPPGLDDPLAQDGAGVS
“Gs-Nb35 (non-lipidated heterotrimeric Gs with nanobody Nb35) (from UniProt P62873 2-340; P59768 2-71)” showed an NECA Ki of A2AR in HEK293 membranes, 100 mM NaCl (alone 4.6 µM) of 340 nM.

Each substance was assayed against β1AR-84 (minimally thermostabilised turkey β1 adrenergic receptor construct) (turkey) (UniProt P07700) (assay: cell-based or functional assay).
β1AR-84 (minimally thermostabilised turkey β1 adrenergic receptor construct) (turkey), sequence (P07700 other isoform, or with tags, fused parts or gaps): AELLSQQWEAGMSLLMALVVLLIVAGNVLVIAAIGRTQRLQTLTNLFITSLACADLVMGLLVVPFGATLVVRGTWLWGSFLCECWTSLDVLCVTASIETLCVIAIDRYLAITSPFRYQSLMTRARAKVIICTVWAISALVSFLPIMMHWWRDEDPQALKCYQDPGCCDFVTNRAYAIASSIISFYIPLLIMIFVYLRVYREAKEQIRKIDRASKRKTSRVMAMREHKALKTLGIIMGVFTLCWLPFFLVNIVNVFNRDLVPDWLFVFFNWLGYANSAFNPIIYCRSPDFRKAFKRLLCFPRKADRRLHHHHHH
“Gs-Nb35 (non-lipidated heterotrimeric Gs with nanobody Nb35) (from UniProt P62873 2-340; P59768 2-71)” showed a fold shift of isoprenaline Ki of β1AR-84 of 163 fold, an isoprenaline Ki of DDM-solubilised β1AR-84 (alone […] µM) of 0.023 µM and an isoprenaline Ki of β1AR-84, 20 °C (alone […] nM) of 16 nM. For “non-lipidated heterotrimeric Gs (Gαsβ1γ2) (from UniProt P62873 2-340; P59768 2-71)”, the fold shift of isoprenaline Ki of β1AR-84 was 9.6 fold, the isoprenaline Ki of β1AR-84, 4 °C (alone […] nM) was 419 nM and the isoprenaline Ki of β1AR-84, 20 °C (alone […] nM) was 271 nM. It also gave an isoprenaline Ki of β1AR-84 with 0.25 mM GTPγS (alone 3.0 µM) of 2700 nM. Nb80 (VHH) gave a fold shift of isoprenaline Ki of β1AR-84 of 93 fold, an isoprenaline Ki of DDM-solubilised β1AR-84 (alone […] µM) of 0.083 µM and an isoprenaline Ki of β1AR-84, 20 °C (alone […] nM) of 28 nM.

What follows are substances tested against β1AR-WT (wild type-like turkey β1 adrenergic receptor construct) (turkey) (UniProt P07700) (assay: cell-based or functional assay).
β1AR-WT (wild type-like turkey β1 adrenergic receptor construct) (turkey), sequence (P07700 other isoform, or with tags, fused parts or gaps limits assumed): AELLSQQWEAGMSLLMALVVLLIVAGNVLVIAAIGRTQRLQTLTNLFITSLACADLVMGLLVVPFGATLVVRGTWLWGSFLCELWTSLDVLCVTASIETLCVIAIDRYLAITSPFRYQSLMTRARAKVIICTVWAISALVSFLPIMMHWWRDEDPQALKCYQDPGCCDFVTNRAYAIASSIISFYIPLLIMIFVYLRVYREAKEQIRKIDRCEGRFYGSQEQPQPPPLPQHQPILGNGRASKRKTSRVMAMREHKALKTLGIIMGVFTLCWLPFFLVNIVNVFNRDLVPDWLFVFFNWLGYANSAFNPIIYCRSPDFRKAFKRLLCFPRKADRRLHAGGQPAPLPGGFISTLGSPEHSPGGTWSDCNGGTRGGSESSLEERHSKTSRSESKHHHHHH
Substance “Gs-Nb35 (non-lipidated heterotrimeric Gs with nanobody Nb35) (from UniProt P62873 2-340; P59768 2-71)” has an apparent Tm of β1AR-WT complex in DDM (receptor alone 25.9 °C) of 35.8 °C, an apparent Tm of β1AR-WT complex in decylmaltoside (receptor alone 20.4 °C) of 31.1 °C and an apparent Tm of β1AR-WT complex in nonylglucoside (uncoupled receptor did not survive) of 19 °C. The apparent Tm of β1AR-WT complex in octylglucoside (uncoupled receptor did not survive) was 13.6 °C, the fold shift of isoprenaline Ki of β1AR-WT was 5.9 fold and the isoprenaline Ki of membrane-embedded β1AR-WT (alone 40 nM) was 6.8 nM. For the same substance, the norepinephrine Ki of β1AR-WT (alone 158 nM) was 0.36 nM. Work on “non-lipidated heterotrimeric Gs (Gαsβ1γ2) (from UniProt P62873 2-340; P59768 2-71)” yielded a fold shift of isoprenaline Ki of β1AR-WT of 2.4 fold and an isoprenaline Ki of membrane-embedded β1AR-WT (alone 40 nM) of 17 nM. Nb80 (VHH) was tested, and the apparent Tm of β1AR-WT complex in DDM (receptor alone 25.9 °C) was 32 °C, the apparent Tm of β1AR-WT complex in decylmaltoside (receptor alone 20.4 °C) was 28.6 °C and the apparent Tm of β1AR-WT complex in nonylglucoside (uncoupled receptor did not survive) was 16.7 °C. For the same substance, the apparent Tm of β1AR-WT complex in octylglucoside (uncoupled receptor did not survive) was 14.3 °C, the fold shift of isoprenaline Ki of β1AR-WT was 6.9 fold and the isoprenaline Ki of membrane-embedded β1AR-WT (alone 40 nM) was 5.8 nM. For the same substance, the norepinephrine Ki of β1AR-WT (alone 158 nM) was 0.7 nM.

The substances below were run against β84 (minimally thermostabilised β1AR construct of Example 2) (UniProt P07700) (assay: cell-based or functional assay).
“Gαs GTPase domain S275D (from UniProt P63092 45-394)” was tested, and the isoprenaline IC50 of β84, 4 °C was 136 nM and the isoprenaline IC50 of β84, 20 °C was 2000 nM. Gαs GTPase domain Δ254-263/Y253P was tested, and the isoprenaline IC50 of β84, 4 °C was 23 nM and the isoprenaline IC50 of β84, 20 °C was 142 nM. “Gαs GTPase domain Y37R/R42D (from UniProt P63092 45-394)” gave an isoprenaline IC50 of β84, 4 °C of 2300 nM. “Gαs GTPase domain L270N/I348N (from UniProt P63092 45-394)” gave an isoprenaline IC50 of β84, 4 °C of 4300 nM. Work on “Gαs GTPase domain S286C/I382C (from UniProt P63092 45-394)” yielded an isoprenaline IC50 of β84, 4 °C of 4200 nM and an isoprenaline IC50 of β84, 20 °C of 7000 nM. “Gαs GTPase domain L272D (from UniProt P63092 45-394)” showed an isoprenaline IC50 of β84, 4 °C of 10 nM and an isoprenaline IC50 of β84, 20 °C of 464 nM. Work on “Gαs GTPase domain R199K (from UniProt P63092 45-394)” yielded an isoprenaline IC50 of β84, 4 °C of 108 nM and an isoprenaline IC50 of β84, 20 °C of 1900 nM. For “Gαs GTPase domain parental construct (Example 2) (from UniProt P63092 45-394)”, the isoprenaline IC50 of β84, 4 °C was 136 nM. For “Gαs GTPase domain R201A (from UniProt P63092 45-394)”, the isoprenaline IC50 of β84, 4 °C was 46 nM and the isoprenaline IC50 of β84, 20 °C was 2200 nM. Work on “Gαs GTPase domain V36D/N218K (from UniProt P63092 45-394)” yielded an isoprenaline IC50 of β84, 4 °C of 115 nM. “Gαs GTPase domain V36D/N218K/T40A (from UniProt P63092 45-394)” gave an isoprenaline IC50 of β84, 4 °C of 551 nM and an isoprenaline IC50 of β84, 20 °C of 2400 nM. “Gαs GTPase domain H41V (from UniProt P63092 45-394)” was tested, and the isoprenaline IC50 of β84, 4 °C was 77 nM and the isoprenaline IC50 of β84, 20 °C was 737 nM. “Gαs GTPase domain H41I (from UniProt P63092 45-394)” was tested, and the isoprenaline IC50 of β84, 4 °C was 58 nM and the isoprenaline IC50 of β84, 20 °C was 589 nM. In the case of “Gαs GTPase domain A48D (from UniProt P63092 45-394)”, the isoprenaline IC50 of β84, 4 °C is reported as 185 nM and the isoprenaline IC50 of β84, 20 °C is reported as 1800 nM. Work on “Gαs GTPase domain R199D (from UniProt P63092 45-394)” yielded an isoprenaline IC50 of β84, 4 °C of 109 nM and an isoprenaline IC50 of β84, 20 °C of 1800 nM. “GTPase domain with βγ-dimer and Nb35 (from UniProt P62873 2-340; P59768 2-71)” gave an isoprenaline IC50 of β84, 20 °C (alone […] µM) of 0.206 µM. For “Gαs GTPase domain S252E (from UniProt P63092 45-394)”, the isoprenaline IC50 of β84, 4 °C was 57 nM and the isoprenaline IC50 of β84, 20 °C was 575 nM. In the case of “Gαs GTPase domain A249D (from UniProt P63092 45-394)”, the isoprenaline IC50 of β84, 4 °C is reported as 15 nM and the isoprenaline IC50 of β84, 20 °C is reported as 53 nM. For “Gαs GTPase domain G49D (from UniProt P63092 45-394)”, the isoprenaline IC50 of β84, 4 °C was 37 nM and the isoprenaline IC50 of β84, 20 °C was 428 nM. Work on “Gαs GTPase domain W234A/F238A (from UniProt P63092 45-394)” yielded an isoprenaline IC50 of β84, 4 °C of 584 nM and an isoprenaline IC50 of β84, 20 °C of 4000 nM. “Gαs GTPase domain A249E (from UniProt P63092 45-394)” gave an isoprenaline IC50 of β84, 4 °C of 104 nM and an isoprenaline IC50 of β84, 20 °C of 582 nM. In the case of “Gαs GTPase domain Y37D (from UniProt P63092 45-394)”, the isoprenaline IC50 of β84, 4 °C is reported as 81 nM and the isoprenaline IC50 of β84, 20 °C is reported as 2000 nM. In the case of “isolated GTPase domain of Gαs (Example 2, FIG. 14)”, the isoprenaline IC50 of β84, 4 °C (alone […] µM) is reported as 0.253 µM and the isoprenaline IC50 of β84, 20 °C (alone […] µM) is reported as 3.4 µM. In the case of “Gαs GTPase domain N279D/Q235K (from UniProt P63092 45-394)”, the isoprenaline IC50 of β84, 4 °C is reported as 102 nM and the isoprenaline IC50 of β84, 20 °C is reported as 2000 nM. In the case of “Gs-Nb35 (non-lipidated heterotrimeric Gs with nanobody Nb35) (from UniProt P62873 2-340; P59768 2-71)”, the isoprenaline IC50 of β84 (alone […] µM) is reported as 0.068 µM. “Gαs GTPase domain G49D/E50N (from UniProt P63092 45-394)” showed an isoprenaline IC50 of β84, 4 °C of 44 nM and an isoprenaline IC50 of β84, 20 °C of 364 nM. Work on Gαs GTPase domain Δ254-263 yielded an isoprenaline IC50 of β84, 4 °C of 31 nM and an isoprenaline IC50 of β84, 20 °C of 30 nM. Work on “Gαs GTPase domain R356D (from UniProt P63092 45-394)” yielded an isoprenaline IC50 of β84, 4 °C of 161 nM and an isoprenaline IC50 of β84, 20 °C of 3300 nM. In the case of “Gαs GTPase domain S252D (from UniProt P63092 45-394)”, the isoprenaline IC50 of β84, 4 °C is reported as 21 nM and the isoprenaline IC50 of β84, 20 °C is reported as 142 nM. With “Gαs GTPase domain D295N (from UniProt P63092 45-394)” the isoprenaline IC50 of β84, 4 °C was 2400 nM. “Gαs GTPase domain C237E (from UniProt P63092 45-394)” showed an isoprenaline IC50 of β84, 4 °C of 93 nM and an isoprenaline IC50 of β84, 20 °C of 1900 nM. Substance Gαs GTPase domain Δ227-230/GG linker has an isoprenaline IC50 of β84, 4 °C of 34 nM and an isoprenaline IC50 of β84, 20 °C of 799 nM. “Gαs GTPase domain G226A (from UniProt P63092 45-394)” showed an isoprenaline IC50 of β84, 4 °C of 127 nM and an isoprenaline IC50 of β84, 20 °C of 1200 nM. Substance “Gαs GTPase domain F208N (from UniProt P63092 45-394)” has an isoprenaline IC50 of β84, 4 °C of 250 nM and an isoprenaline IC50 of β84, 20 °C of 1300 nM. Gαs GTPase domain Δ255-262/G linker showed an isoprenaline IC50 of β84, 4 °C of 1300 nM. For “Gαs GTPase domain A249S (from UniProt P63092 45-394)”, the isoprenaline IC50 of β84, 4 °C was 146 nM and the isoprenaline IC50 of β84, 20 °C was 1600 nM. Substance “Gαs GTPase domain H41L (from UniProt P63092 45-394)” has an isoprenaline IC50 of β84, 4 °C of 285 nM and an isoprenaline IC50 of β84, 20 °C of 3900 nM. Work on “Gαs GTPase domain L272E (from UniProt P63092 45-394)” yielded an isoprenaline IC50 of β84, 4 °C of 42 nM and an isoprenaline IC50 of β84, 20 °C of 110 nM. “Gαs GTPase domain N279E/I235K (from UniProt P63092 45-394)” gave an isoprenaline IC50 of β84, 4 °C of 1200 nM and an isoprenaline IC50 of β84, 20 °C of 2800 nM. With “Gαs GTPase domain E50N (from UniProt P63092 45-394)” the isoprenaline IC50 of β84, 4 °C was 55 nM and the isoprenaline IC50 of β84, 20 °C was 1100 nM. “Gαs GTPase domain H41M (from UniProt P63092 45-394)” gave an isoprenaline IC50 of β84, 4 °C of 307 nM and an isoprenaline IC50 of β84, 20 °C of 1800 nM. With “non-lipidated heterotrimeric Gs (Gαsβ1γ2) (from UniProt P62873 2-340; P59768 2-71)” the isoprenaline IC50 of β84 (alone […] µM) was 1.4 µM. “Gαs GTPase domain D240G (from UniProt P63092 45-394)” was tested, and the isoprenaline IC50 of β84, 4 °C was 510 nM and the isoprenaline IC50 of β84, 20 °C was 4400 nM. With “Gαs GTPase domain S54N (from UniProt P63092 45-394)” the isoprenaline IC50 of β84, 4 °C was 462 nM. For Nb80 (VHH), the isoprenaline IC50 of β84 (alone […] µM) was 0.016 µM. “Gαs GTPase domain V36D/N218K/T40D (from UniProt P63092 45-394)” was tested, and the isoprenaline IC50 of β84, 4 °C was 427 nM and the isoprenaline IC50 of β84, 20 °C was 3200 nM. With “Gαs GTPase domain R356S (from UniProt P63092 45-394)” the isoprenaline IC50 of β84, 4 °C was 229 nM and the isoprenaline IC50 of β84, 20 °C was 2800 nM.
